Reference: US20210169880A1
Values belong to the binder of their own block, whether it stands above or below them.

Tests used:
human SLAMF7 (human) = human SLAMF7 (human) (UniProt Q9NQ25); assay: cell-based or functional assay
human ROR1 (human) = human ROR1 (human) (UniProt Q01973); assay: cell-based or functional assay

specific lysis of K562/SLAMF7 target cells by CD8+ CAR-T cells, no dasatinib, t=6 h (human SLAMF7 (human)): 67%
specific lysis of K562/SLAMF7 target cells by CD8+ CAR-T cells, no dasatinib, t=12 h (human SLAMF7 (human)): 85%
B1: SLAMF7 CAR with CD28 costimulatory domain (protein)
chain: EVQLVESGGGLVQPGGSLRLSCAASGFDFSRYWMSWVRQAPGKGLEWIGEINPDSSTINYAPSLKDKFIISRDNAKNSLYLQMNSLRAEDTAVYYCARPDGNYWYFDVWGQGTLVTVSSGGGGSGGGGSGGGGSDIQMTQSPSSLSASVGDRVTITCKASQDVGIAVAWYQQKPGKVPKLLIYWASTRHTGVPDRFSGSGSGTDFTLTISSLQPEDVATYYCQQYSSYPYTFGQGTKVEIKESKYGPPCPPCPAPPVAGPSVFLFPPKPKDTLMISRTPEVTCVVVDVSQEDPEVQFNWYVDGVEVHNAKTKPREEQFQSTYRVVSVLTVLHQDWLNGKEYKCKVSNKGLPSSIEKTISKAKGQPREPQVYTLPPSQEEMTKNQVSLTCLVKGFYPSDIAVEWESNGQPENNYKTTPPVLDSDGSFFLYSRLTVDKSRWQEGNVFSCSVMHEALHNHYTQKSLSLSLGKMFWVLVVVGGVLACYSLLVTVAFIIFWVRSKRSRGGHSDYMNMTPRRPGPTRKHYQPYAPPRDFAAYRSRVKFSRSADAPAYQQGQNQLYNELNLGRREEYDVLDKRRGRDPEMGGKPRRKNPQEGLYNELQKDKMAEAYSEIGMKGERRRGKGHDGLYQGLSTATKDTYDALHMQALPPR

IFN-γ in supernatant (ELISA), CD8+ CAR-T cells co-cultured with RCH-ACV, untreated (human ROR1 (human)): 1310 pg/mL
proliferation index (CFSE, 72 h), CD8+ CAR-T cells co-cultured with RCH-ACV, untreated (proliferation index) (human ROR1 (human)): 2.84
specific lysis of K562/ROR1 target cells by CD8+ CAR-T cells, no dasatinib, t=10 h (human ROR1 (human)): 94%
specific lysis of K562/ROR1 target cells by CD8+ CAR-T cells, no dasatinib, up to t=5 h (human ROR1 (human)): 73%
specific lysis of ROR1+ RCH-ACV target cells by CD8+ CAR-T cells, untreated, t=8 h (human ROR1 (human)): > 90%
B2: ROR1 CAR with 4-1BB costimulatory domain (protein)
chain: QVQLVESGGALVQPGGSLTLSCKASGFDFSAYYMSWVRQAPGKGLEWIATIYPSSGKTYYAASVQGRFTISADNAKNTVYLQMNSLTAADTATYFCARDSYADDGALFNIWGQGTLVTVSSGGGGSGGGGSGGGGSQLVLTQSPSVSAALGSSAKITCTLSSAHKTDTIDWYQQLAGQAPRYLMYVQSDGSYEKRSGVPDRFSGSSSGADRYLIISSVQADDEADYYCGADYIGGYVFGGGTQLTVGESKYGPPCPPCPMFWVLVVVGGVLACYSLLVTVAFIIFWVKRGRKKLLYIFKQPFMRPVQTTQEEDGCSCRFPEEEEGGCELRVKFSRSADAPAYQQGQNQLYNELNLGRREEYDVLDKRRGRDPEMGGKPRRKNPQEGLYNELQKDKMAEAYSEIGMKGERRRGKGHDGLYQGLSTATKDTYDALHMQALPPR

specific lysis of K562/SLAMF7 target cells by CD8+ CAR-T cells, no dasatinib, t=6 h (human SLAMF7 (human)): 63%
specific lysis of K562/SLAMF7 target cells by CD8+ CAR-T cells, no dasatinib, t=12 h (human SLAMF7 (human)): 83%
B3: SLAMF7 CAR with 4-1BB costimulatory domain (protein)
chain: EVQLVESGGGLVQPGGSLRLSCAASGFDFSRYWMSWVRQAPGKGLEWIGEINPDSSTINYAPSLKDKFIISRDNAKNSLYLQMNSLRAEDTAVYYCARPDGNYWYFDVWGQGTLVTVSSGGGGSGGGGSGGGGSDIQMTQSPSSLSASVGDRVTITCKASQDVGIAVAWYQQKPGKVPKLLIYWASTRHTGVPDRFSGSGSGTDFTLTISSLQPEDVATYYCQQYSSYPYTFGQGTKVEIKESKYGPPCPPCPAPPVAGPSVFLFPPKPKDTLMISRTPEVTCVVVDVSQEDPEVQFNWYVDGVEVHNAKTKPREEQFQSTYRVVSVLTVLHQDWLNGKEYKCKVSNKGLPSSIEKTISKAKGQPREPQVYTLPPSQEEMTKNQVSLTCLVKGFYPSDIAVEWESNGQPENNYKTTPPVLDSDGSFFLYSRLTVDKSRWQEGNVFSCSVMHEALHNHYTQKSLSLSLGKMFWVLVVVGGVLACYSLLVTVAFIIFWVKRGRKKLLYIFKQPFMRPVQTTQEEDGCSCRFPEEEEGGCELRVKFSRSADAPAYQQGQNQLYNELNLGRREEYDVLDKRRGRDPEMGGKPRRKNPQEGLYNELQKDKMAEAYSEIGMKGERRRGKGHDGLYQGLSTATKDTYDALHMQALPPR
